Results as given in patent publication US9462805B2, “Herbicide-resistant proteins, encoding genes, and uses thereof” (Beijing Dabeinong Technology Group Co., Ltd., priority 2012, dated 2016).

How the values were obtained:
Arabidopsis = assay: Effective dose distinguishing sensitive from resistant Arabidopsis; format: in vivo
[1] = test system: Arabidopsis T1 plants transformed with 24DT02 nucleotide sequence; assay: Herbicide resistance effect test of transgenic Arabidopsis T1 plants (24DT02); format: in vivo, Arabidopsis thaliana; conditions: for resistance levels to 2,4-D dimethyl ammonium salt and agroxone, compared among the sequences: Arabidopsis T1 plants transformed with the respective sequence
Procedure: On 7 days after planting (DAP) and 11 DAP respectively, the T1 plants (cotyledon stage and 2-4 leaves stage, respectively) were sprayed with 0.2% of Liberty herbicide solution (200 g ai/L glufosinate-ammonium) using DeVilbiss compressed air nozzle at a spraying volume of 10 ml/disc (703 L/ha) so as to provide effective amount of glufosinate-ammonium (280 g ai/ha) for each application. The survival plants (actively growing plants) were verified 4 to 7 days after the last spraying and transferred into the square pot (7 cm×7 cm) made from vermiculite and horses dung (3-5 plants per pot). The transplanted plants were covered with moisturizing mask for 3-4 days and placed in culture room at 22° C. or directly into the greenhouse as described above. Then the mask was removed and the plants were planted in greenhouse (22±5° C., 50±30% RH, 14 hours of lighting: 10 hours of darkness, minimum […] natural light+complement light) at least one day before testing the ability of 24DT02 to provide the resistance to phenoxy auxin herbicide.
24DT02 gene was used to transform Arabidopsis for the first time. At first, T1 transformants were selected from the background of un-transformed seeds, using glufosinate-ammonium selection scheme. About 40000 T1 seeds were screened among which 195 strains of T1 generation positive transformants (PAT gene) were identified, i.e. the transformation efficiency was about 0.5%. Herbicide resistance effect tests to 2,4-D dimethyl ammonium salt and agroxone of Arabidopsis T1 plants transformed with 24DT02 nucleotide sequence, substituted 24DT02 nucleotide sequence, truncated 24DT02 nucleotide sequence, added 24DT02 nucleotide sequence, control nucleotide sequence respectively and wild-type Arabidopsis plants were performed after 18 days of planting.
Arabidopsis T1 plants transformed with 24DT02 nucleotide sequence, substituted 24DT02 nucleotide sequence, truncated 24DT02 nucleotide sequence, added 24DT02 nucleotide sequence and control nucleotide sequence respectively and wild-type Arabidopsis plants were sprayed with 2,4-D dimethyl ammonium salt (560 g ae/ha, 1-fold concentration in field), agroxone (560 g ae/ha, 1-fold concentration in field) and blank solvent (water). Resistance conditions of the plants were counted 7 days and 14 days after spraying. Plants with growth conditions consistent with blank solvent (water) 7 days after spaying were classified as highly resistant plants; Plants with curly rosette leaves 7 days after spaying were classified as moderately resistant plants; Plants incapable of bolting 14 days after spaying were classified as low-resistant plants and the dead plants 14 days after spaying were classified as non-resistant plants. Because each Arabidopsis T1 plant was an independent transformation event, significant differences of individual T1 responses were expected under a given dose.

[2] = test system: corn plants transfected with 24DT02 nucleotide sequence; assay: Herbicide-resistance effect test of transgenic corn plants (24DT02; strains S1-S3); format: in vivo, maize; conditions: for resistance levels against 2,4-D dimethyl ammonium salt and agroxone, compared among the sequences: corn plants transformed with the respective sequence
Procedure: Herbicide resistance effects tests to 2,4-D dimethyl ammonium salt and agroxone of maize plants containing 24DT02 nucleotide sequence, 24DT02 substituted nucleotide sequence, 24DT02 truncated nucleotide sequence, 24DT02 added nucleotide sequence, control nucleotide sequence respectively and wild type maize plants (stages V3-V4) were performed respectively.
Maize plants containing 24DT02 nucleotide sequence, 24DT02 substituted nucleotide sequence, 24DT02 truncated nucleotide sequence, 24DT02 added nucleotide sequence, control nucleotide sequence respectively and wild type maize plants were taken and spayed with 2,4-D dimethyl ammonium salt (8960 g ae/ha, 16-folds concentration in field), agroxone (8960 g ae/ha, 16-folds concentration in field) and blank solvent (water) respectively. Prop root development was counted 21 days after spaying. Three strains (S1, S2, and S3) of corn plants transfected with 24DT02 nucleotide sequence, two strains (S4 and S5) of corn plants transfected with 24DT02 substituted nucleotide sequence, two strains (S6 and S7) of corn plants transfected with 24DT02 truncated nucleotide sequence, two strains (S8 and S9) of corn plants transfected with 24DT02 added nucleotide sequence, two strains (S10 and S11) of corn plants transfected with control nucleotide sequence and 1 strain of wild type (CK) corn were selected and 10-15 plants from each stain were tested.

Molecule	effective dose to distinguish the sensitive plants from plants with average resistance (Arabidopsis)	resistance levels to 2,4-D dimethyl ammonium salt and agroxone, compared among the sequences [1]	resistance levels against 2,4-D dimethyl ammonium salt and agroxone, compared among the sequences [2]	herbicide resistance conferred to plants ([1]; Arabidopsis T1 plants, 2,4-D dimethyl ammonium salt and agroxone 560 g ae/ha, Table 1 and FIG. 4)	herbicide resistance conferred to plants ([2]; transgenic maize plants, 2,4-D dimethyl ammonium salt and agroxone 8960 g ae/ha, Table 2)
O=C(O)COc1ccc(Cl)cc1Cl [2,4-D, 2,4-dichlorophenoxyacetic acid]	50 g ae/ha				
24DT02-t: truncated 24DT02 (SEQ ID NO: 4), amino acids from 1 to 295 of 24DT02 amino acid sequence (protein, 24DT02 truncated nucleotide sequence) MERHAMSNGKQIVRIEPLPGKTFGAVVTGVRLSELDEDTFSLLYREWLQYALLIFPAQYLTDSQQRDAASKFGCLVEGLEAVEISNLLPTGEVRAAPDDDMMKIIRGNMQWHQDNTYMPLQAKGALFSAKRVPSSGGETGFADMRAAWDALDTETQDRLANLSAYHSLAQSQKNLGEDVKSSDSEYIGYGLDVSTVPRRSLLKIHPETDRKTLAVGRHAFGVTGMAEQESTQFVSDLIDFAVADESRTYHHIWSEGDAILWDNRCLMHRACPWNFSQPRVMLHSRIAGDPSTEAA		didn't show significant differences	didn't show significant differences		
24DT02: herbicide-resistant protein of 298 amino acids, SEQ ID NO: 2, encoded by nucleotide sequence SEQ ID NO: 1 (protein, 24DT02 amino acid sequence) MERHAMSNGKQIVRIEPLPGKTFGAVVTGVRLSELDEDTFSLLYREWLQYALLIFPAQYLTDSQQRDAASKFGCLVEGLEAVEISNLLPTGEVRAAPDDDMMKIIRGNMQWHQDNTYMPLQAKGALFSAKRVPSSGGETGFADMRAAWDALDTETQDRLANLSAYHSLAQSQKNLGEDVKSSDSEYIGYGLDVSTVPRRSLLKIHPETDRKTLAVGRHAFGVTGMAEQESTQFVSDLIDFAVADESRTYHHIWSEGDAILWDNRCLMHRACPWNFSQPRVMLHSRIAGDPSTEAALNS		didn't show significant differences	didn't show significant differences	conferred herbicide resistance to individual Arabidopsis plants	conferred high resistance against herbicides to the transgenic maize plants
24DT02-i: substituted 24DT02 (SEQ ID NO: 3), in which the Met267 was substituted with Leu (protein, 24DT02 substituted nucleotide sequence) MERHAMSNGKQIVRIEPLPGKTFGAVVTGVRLSELDEDTFSLLYREWLQYALLIFPAQYLTDSQQRDAASKFGCLVEGLEAVEISNLLPTGEVRAAPDDDMMKIIRGNMQWHQDNTYMPLQAKGALFSAKRVPSSGGETGFADMRAAWDALDTETQDRLANLSAYHSLAQSQKNLGEDVKSSDSEYIGYGLDVSTVPRRSLLKIHPETDRKTLAVGRHAFGVTGMAEQESTQFVSDLIDFAVADESRTYHHIWSEGDAILWDNRCLLHRACPWNFSQPRVMLHSRIAGDPSTEAALNS		didn't show significant differences	didn't show significant differences		
24DT02-a: added 24DT02 (SEQ ID NO: 5), Ala, Leu and Val added after the 298th amino acid (protein, 24DT02 added nucleotide sequence) MERHAMSNGKQIVRIEPLPGKTFGAVVTGVRLSELDEDTFSLLYREWLQYALLIFPAQYLTDSQQRDAASKFGCLVEGLEAVEISNLLPTGEVRAAPDDDMMKIIRGNMQWHQDNTYMPLQAKGALFSAKRVPSSGGETGFADMRAAWDALDTETQDRLANLSAYHSLAQSQKNLGEDVKSSDSEYIGYGLDVSTVPRRSLLKIHPETDRKTLAVGRHAFGVTGMAEQESTQFVSDLIDFAVADESRTYHHIWSEGDAILWDNRCLMHRACPWNFSQPRVMLHSRIAGDPSTEAALNSALV		didn't show significant differences	didn't show significant differences		
